Laboratory results: patent US20060216339

Key:
[1] = test system: purified recombinant Elk1 protein (Elk1-GST fusion protein) [GST: P08515]
[2] = test system: recombinant mammalian ERK2 (MAPK p42 protein, bacterial recombinant, already containing phospho-tyrosine-185)

purified recombinant Elk1 protein (Elk1-GST fusion protein) [GST: P08515], sequence (P08515 whole entry, looked up, the tested form may be a part): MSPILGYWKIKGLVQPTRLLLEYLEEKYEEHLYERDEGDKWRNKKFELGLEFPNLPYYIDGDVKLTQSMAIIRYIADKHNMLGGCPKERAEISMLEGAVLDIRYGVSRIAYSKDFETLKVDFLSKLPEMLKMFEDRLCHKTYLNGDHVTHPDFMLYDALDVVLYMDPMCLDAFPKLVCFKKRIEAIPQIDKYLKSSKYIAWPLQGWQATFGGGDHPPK

Row | Substance | phosphorylation of Elk1 at Ser^383 (Western blot with Ab^pElk1) [1] | ERK2 activity (production of phospho-Elk1) [2]
1 | active apMAPK (phospho-apMAPK, dually phosphorylated at the T-E-Y site) | the apPKG-activated ap-MAPK phosphorylated its physiological substrate, Elk1, at the appropriate Ser^383 | –
2 | ERK2 activated by apPKG (doubly phosphorylated, T183 and Y185) | ERK2 activity was measured by the phosphorylation of Elk1 at Ser^383 | –
3 | MEK1 (MAP kinase kinase 1)-GST fusion protein, activated by the catalytic subunit of MEKK1 | – | MEK1, which produces the maximally activated kinase
